First the molecules themselves.
B1: Transcription factor SOX-11, residues 50 to 117; numbered along this chain, P35716 (parent)
chain: KRPMNAFMVWSKIERRKIMEQSPDMHNAEISKRLGKRWKMLKDSEKIPFIREAERLRLKHMADYPDYK

± gives the uncertainty stated by the source.

In the data set the parent is B1. Kind of data set: abundance fitness (aPCA) (normalised: wild type 0, dead -1); higher = more abundant; growth selection in yeast, the domain comes from the species named. The note with it: Homo sapiens.
For A62Q, the abundance fitness amounted to 0.146 ± 0.096.

Regarding A62K, the abundance fitness was -0.085 ± 0.08. The figure for A62H is -0.251 ± 0.059; for A62N it is 0.111 ± 0.043.

A62F: the abundance fitness was -0.2 ± 0.042. Regarding A62L, the abundance fitness was -0.123 ± 0.044. Then A62S, with 0.116 ± 0.039; and A62I, with -0.182 ± 0.046. A62D: the abundance fitness is 0.092 ± 0.05.

A62Y: the abundance fitness was -0.163 ± 0.043. The figure for A62G is 0.079 ± 0.05; for A62W it is -0.43 ± 0.098. The figure for A62C is -0.062 ± 0.047; for A62R it is -0.225 ± 0.053; for A62V it is -0.139 ± 0.047. For the variant A62M, the abundance fitness is -0.181 ± 0.082. The figure for K68Y is 0.314 ± 0.24; for K68N it is 0.163 ± 0.33; for K68C it is 0.354 ± 0.28.

In the case of K68L, the abundance fitness is -0.642 ± 0.4. Take K68T: the abundance fitness was -0.139 ± 0.37. For K68S, the abundance fitness was -0.093 ± 0.33. Then P48C, with -0.634 ± 0.087; and P48T, with -0.719 ± 0.11; and P48E, with -0.386 ± 0.22. P48L: the abundance fitness was -0.572 ± 0.098. With P48G, the abundance fitness is -0.384 ± 0.098.

As to P48S, the abundance fitness was -0.617 ± 0.086. With P48R, the abundance fitness was -0.604 ± 0.12.

Consider P48D, for which the abundance fitness was -0.656 ± 0.12. The figure for P48H is -0.355 ± 0.075; for P48Q it is -0.24 ± 0.16. Consider P48F, for which the abundance fitness was -0.285 ± 0.075. The figure for P48W is -0.577 ± 0.24. Then P48A, with -0.664 ± 0.14. Then P48K, with -0.69 ± 0.2. P48I: the abundance fitness was -0.43 ± 0.089. The figure for P48V is -0.261 ± 0.077; for P48N it is -0.598 ± 0.093. As to R55S, the abundance fitness is -0.146 ± 0.049. Then R55N, with -0.087 ± 0.055. Then R55E, with -0.017 ± 0.14; and R55V, with -0.343 ± 0.063; and R55G, with -0.313 ± 0.055. The figure for R55M is -0.521 ± 0.15; for R55I it is -0.246 ± 0.067; for R55K it is -0.177 ± 0.15. For the variant R55W, the abundance fitness is -0.277 ± 0.19. R55F: the abundance fitness was -0.356 ± 0.071.

With R55C, the abundance fitness is -0.416 ± 0.057. As to R55Y, the abundance fitness is -0.43 ± 0.061. Take R55D: the abundance fitness is -0.119 ± 0.058. Then R55P, with -0.868 ± 0.19; and R55H, with -0.213 ± 0.06; and E52Q, with -1.04 ± 0.34. The figure for E52M is -0.396 ± 0.12; for E52T it is -0.397 ± 0.079; for E52K it is -0.577 ± 0.16. Then E52A, with -0.462 ± 0.084. Turning to E52D, the abundance fitness is -0.438 ± 0.088. The figure for E52N is -0.793 ± 0.12; for E52R it is -0.735 ± 0.076; for E52F it is -0.546 ± 0.067.

In the case of E52S, the abundance fitness was -0.785 ± 0.072. With E52C, the abundance fitness was -0.515 ± 0.064.

For the variant E52W, the abundance fitness is -0.605 ± 0.14. With E52V, the abundance fitness was -0.404 ± 0.057.

E52P: the abundance fitness was -0.982 ± 0.15. The figure for E52I is -0.278 ± 0.061; for E52H it is -0.564 ± 0.078.

As to E52Y, the abundance fitness is -0.598 ± 0.082.

For the variant E54P, the abundance fitness was -0.925 ± 0.16. The figure for E54L is -0.601 ± 0.083; for E54M it is -0.833 ± 0.34; for E54V it is -0.671 ± 0.074. With E54F, the abundance fitness was -0.762 ± 0.085. The figure for E54C is -0.42 ± 0.089; for E54W it is -0.576 ± 0.36; for E54R it is -0.74 ± 0.1. Turning to E54Q, the abundance fitness was -0.364 ± 0.16. Turning to E54G, the abundance fitness is -0.714 ± 0.085. For E54Y, the abundance fitness is -0.335 ± 0.067.

Take E54N: the abundance fitness is -0.241 ± 0.063. Turning to E54K, the abundance fitness is -0.826 ± 0.24.

E54D: the abundance fitness is -0.323 ± 0.066.

For E54H, the abundance fitness was -0.641 ± 0.097. The figure for E54T is -0.7 ± 0.12. As for E54I, the abundance fitness was -0.751 ± 0.091.

Turning to E54A, the abundance fitness was -0.425 ± 0.072.

K59S: the abundance fitness is -0.017 ± 0.044.

For the variant K59T, the abundance fitness is 0.075 ± 0.069. As to K59C, the abundance fitness is -0.099 ± 0.055.

Consider K59V, for which the abundance fitness amounted to 0.012 ± 0.051. Then K59E, with 0.084 ± 0.16. Then K59D, with -0.052 ± 0.061; and K59W, with -0.323 ± 0.15; and K59F, with -0.166 ± 0.054. Regarding K59Y, the abundance fitness was -0.192 ± 0.056. Take K59H: the abundance fitness came to 0.106 ± 0.06. Consider K59M, for which the abundance fitness was 0.039 ± 0.089. With K59I, the abundance fitness was -0.054 ± 0.054. Then K59A, with 0.087 ± 0.062; and K59N, with 0.026 ± 0.053. The figure for K59L is 0.12 ± 0.053; for K59P it is -0.403 ± 0.089. With F49R, the abundance fitness is -0.767 ± 0.091. Then F49H, with -0.739 ± 0.11; and F49S, with -0.566 ± 0.065.

As for F49E, the abundance fitness was -0.792 ± 0.46. Then F49W, with -0.256 ± 0.11. For the variant F49G, the abundance fitness is -0.739 ± 0.076.

For F49A, the abundance fitness was -0.761 ± 0.093. For the variant F49I, the abundance fitness is -0.694 ± 0.074.

In the case of F49T, the abundance fitness is -0.558 ± 0.097.

On to F49L, for which the abundance fitness was -0.731 ± 0.09. Then F49Y, with 0.048 ± 0.053; and F49N, with -0.881 ± 0.1. In the case of F49V, the abundance fitness is -0.635 ± 0.067. The figure for F49M is -0.301 ± 0.2. Then D63N, with 0.113 ± 0.26; and Y67I, with -0.027 ± 0.097.

As to Y67P, the abundance fitness is 0.151 ± 0.11. Then Y67A, with 0.149 ± 0.14; and Y67K, with -0.007 ± 0.24. For Y67T, the abundance fitness is -0.044 ± 0.12. Y67F: the abundance fitness is -0.097 ± 0.093.

Regarding Y67N, the abundance fitness turned out to be 0.203 ± 0.053. With Y67R, the abundance fitness is -0.163 ± 0.1. For Y67D, the abundance fitness was 0.283 ± 0.056.

Take Y67L: the abundance fitness came to 0.098 ± 0.083.

Consider Y67C, for which the abundance fitness is -0.048 ± 0.1. As to Y67V, the abundance fitness is -0.214 ± 0.11. Then Y67H, with 0.089 ± 0.056; and Y67W, with 0.17 ± 0.22; and Y67M, with 0.222 ± 0.27. As for Y67S, the abundance fitness is 0.175 ± 0.073.

Take I50D: the abundance fitness is -0.425 ± 0.071. The figure for I50A is -0.287 ± 0.074. The figure for I50S is -0.509 ± 0.057; for I50E it is 0.248 ± 0.11. The figure for I50C is -0.59 ± 0.072. With I50F, the abundance fitness was -0.034 ± 0.052. The figure for I50G is -0.555 ± 0.071. The figure for I50R is -0.01 ± 0.059. Take I50Q: the abundance fitness was -0.007 ± 0.18. The figure for I50N is -0.323 ± 0.069; for I50H it is -0.005 ± 0.06; for I50M it is 0.013 ± 0.14. In the case of I50P, the abundance fitness was -0.617 ± 0.14. Then I50K, with -0.228 ± 0.17.

I50W: the abundance fitness is -0.437 ± 0.14. I50L: the abundance fitness is -0.161 ± 0.063.

With L58W, the abundance fitness is -0.222 ± 0.16.

Values taken from the Human Domainome abundance scans (Beltran et al. 2025).
